# Measured values published in publication PMC10164577, “CAF-1 deposits newly synthesized histones during DNA replication using distinct mechanisms on the leading and lagging strands” (Nucleic Acids Research, 2022).
# Positions count from the first letter of the chain named. Names and notes keep the numbering of the source.
# B1: Proliferating Cell Nuclear Antigen (PCNA), wild type (natural protein, yeast, UniProt P15873 1-258, looked up)
# chain: MLEAKFEEASLFKRIIDGFKDCVQLVNFQCKEDGIIAQAVDDSRVLLVSLEIGVEAFQEYRCDHPVTLGMDLTSLSKILRCGNNTDTLTLIADNTPDSIILLFEDTKKDRIAEYSLKLMDIDADFLKIEELQYDSTLSLPSSEFSKIVRDLSQLSDSINIMITKETIKFVADGDIGSGSVIIKPFVDMEHPETSIKLEMDQPVDLTFGAKYLLDIIKGSSLSDRVGIRLSSEAPALFQFDLKSGFLQFFLAPKFNDEE
# notes: PCNA, yeast; homotrimeric clamp; In the SEC experiments loaded onto nicked pUC19 by RFCΔN and ATP
# B2: PCNA K164C, labeled with Alexa Fluor 546 (natural protein, yeast, UniProt P15873 1-258, looked up)
# chain: B1 chain with K164C
# modifications: labeled with Alexa Fluor 546
# notes: PCNA, yeast, K164C; also called fluorescently labeled PCNA; source: made by standard mutagenesis, purified following the wild-type protocol
# B3: DNA polymerase delta (Polδ) (complex)
# chain 1: MSEKRSLPMVDVKIDDEDTPQLEKKIKRQSIDHGVGSEPVSTIEIIPSDSFRKYNSQGFKAKDTDLMGTQLESTFEQELSQMEHDMADQEEHDLSSFERKKLPTDFDPSLYDISFQQIDAEQSVLNGIKDENTSTVVRFFGVTSEGHSVLCNVTGFKNYLYVPAPNSSDANDQEQINKFVHYLNETFDHAIDSIEVVSKQSIWGYSGDTKLPFWKIYVTYPHMVNKLRTAFERGHLSFNSWFSNGTTTYDNIAYTLRLMVDCGIVGMSWITLPKGKYSMIEPNNRVSSCQLEVSINYRNLIAHPAEGDWSHTAPLRIMSFDIECAGRIGVFPEPEYDPVIQIANVVSIAGAKKPFIRNVFTLNTCSPITGSMIFSHATEEEMLSNWRNFIIKVDPDVIIGYNTTNFDIPYLLNRAKALKVNDFPYFGRLKTVKQEIKESVFSSKAYGTRETKNVNIDGRLQLDLLQFIQREYKLRSYTLNAVSAHFLGEQKEDVHYSIISDLQNGDSETRRRLAVYCLKDAYLPLRLMEKLMALVNYTEMARVTGVPFSYLLARGQQIKVVSQLFRKCLEIDTVIPNMQSQASDDQYEGATVIEPIRGYYDVPIATLDFNSLYPSIMMAHNLCYTTLCNKATVERLNLKIDEDYVITPNGDYFVTTKRRRGILPIILDELISARKRAKKDLRDEKDPFKRDVLNGRQLALKISANSVYGFTGATVGKLPCLAISSSVTAYGRTMILKTKTAVQEKYCIKNGYKHDAVVVYGDTDSVMVKFGTTDLKEAMDLGTEAAKYVSTLFKHPINLEFEKAYFPYLLINKKRYAGLFWTNPDKFDKLDQKGLASVRRDSCSLVSIVMNKVLKKILIERNVDGALAFVRETINDILHNRVDISKLIISKTLAPNYTNPQPHAVLAERMKRREGVGPNVGDRVDYVIIGGNDKLYNRAEDPLFVLENNIQVDSRYYLTNQLQNPIISIVAPIIGDKQANGMFVVKSIKINTGSQKGGLMSFIKKVEACKSCKGPLRKGEGPLCSNCLARSGELYIKALYDVRDLEEKYSRLWTQCQRCAGNLHSEVLCSNKNCDIFYMRVKVKKELQEKVEQLSKW
# chain 2: MDALLTKFNEDRSLQDENLSQPRTRVRIVDDNLYNKSNPFQLCYKKRDYGSQYYHIYQYRLKTFRERVLKECDKRWDAGFTLNGQLVLKKDKVLDIQGNQPCWCVGSIYCEMKYKPNVLDEVINDTYGAPDLTKSYTDKEGGSDEIMLEDESGRVLLVGDFIRSTPFITGVVVGILGMEAEAGTFQVLDICYPTPLPQNPFPAPIATCPTRGKIALVSGLNLNNTSPDRLLRLEILREFLMGRINNKIDDISLIGRLLICGNSVDFDIKSVNKDELMISLTEFSKFLHNILPSISVDIMPGTNDPSDKSLPQQPFHKSLFDKSLESYFNGSNKEILNLVTNPYEFSYNGVDVLAVSGKNINDICKYVIPSNDNGESENKVEEGESNDFKDDIEHRLDLMECTMKWQNIAPTAPDTLWCYPYTDKDPFVLDKWPHVYIVANQPYFGTRVVEIGGKNIKIISVPEFSSTGMIILLDLETLEAETVKIDI
# chain 3: MDQKASYFINEKLFTEVKPVLFTDLIHHLKIGPSMAKKLMFDYYKQTTNAKYNCVVICCYKDQTIKIIHDLSNIPQQDSIIDCFIYAFNPMDSFIPYYDIIDQKDCLTIKNSYELKVSESSKIIERTKTLEEKSKPLVRPTARSKTTPEETTGRKSKSKDMGLRSTALLAKMKKDRDDKETSRQNELRKRKEENLQKINKQNPEREAQMKELNNLFVEDDLDTEEVNGGSKPNSPKETDSNDKDKNNDDLEDLLETTAEDSLMDVPKIQQTKPSETEHSKEPKSEEEPSSFIDEDGYIVTKRPATSTPPRKPSPVVKRALSSSKKQETPSSNKRLKKQGTLESFFKRKAK
# Experiments:
# Conditions in all cases: both partners purified
# [1] = molecular target: T1, Chromatin Assembly Factor-1 (CAF-1), wild type (yeast, UniProt Q12495 1-606; Q04199 1-468; P13712 1-422); test: SEC; PCNA (30 μM) loaded on nicked pUC19 (0.3 μM) by RFCΔN (0.5 μM) with 10 mM MgCl2 and 3 mM ATP, then CAF-1 (5 μM), 15 min room temperature; Superose 6 increase 3.2/300 in 50 mM HEPES pH 7.5, 200 mM NaCl, 0.01% IGEPAL, 1 mM TCEP, 10 mM MgCl2; fractions on SDS-PAGE
# T1 construct: Cac1, large subunit of yeast CAF-1; Cac2, subunit of yeast CAF-1; Cac3, subunit of yeast CAF-1; Heterotrimer Cac1-Cac2-Cac3; also called WT CAF-1; copies: + +
# [2] = molecular target: T1, Chromatin Assembly Factor-1 (CAF-1), …; test: cross-linking; limiting PCNA: 50 nM AF546-PCNA K164C loaded on nicked pUC19 (15 nM) by full-length RFC (15 nM), CAF-1 titrated 0-1 μM, 100-110 mM NaCl; 0.2% glutaraldehyde; nuclease digestion; SDS-PAGE, PCNA fluorescence, band intensities; affinities estimated
# [3] = molecular target: T2, Clamp loader RFC (RFC1-5), full-length (yeast, UniProt P38630 1-861; P40348 1-353; P38629 1-340; P40339 1-323; P38251 1-354); test: as above
# T2 construct: Rfc1, yeast replication factor C subunit 1; Rfc2, yeast replication factor C subunit 2; Rfc3, yeast replication factor C subunit 3; Rfc4, yeast replication factor C subunit 4; Rfc5, yeast replication factor C subunit 5; also called full-length RFC; copies: + + + +
# [4] = molecular target: Histones H3–H4 (H3 C110A-H4 E63C), Alexa488-labeled (Xenopus laevis, maleimide AlexaFluor-488 on E63C); test: fluorescence polarisation; 10 nM Alexa488-labeled H3–H4 with increasing CAF-1, Polϵ, Polδ or RPA; 25 mM TRIS pH 7.5, 300 mM NaCl, 5% glycerol, 1 mM EDTA, 0.01% IGEPAL, 0.01% CHAPS, 1 mM DTT; one site binding curve
binder,measurement,setting,value
B1,binding result,[1],binds
B2,Kd,[2],~100 nM
same,binding result,[3],binds
B3,Kd,[4],≥ 300 nM
